Assay results as given in IntAct's records for PubMed 23877428.

B1: Scaffold protein ILK (Homo sapiens), Q13418 (parent)
chain: MDDIFTQCREGNAVAVRLWLDNTENDLNQGDDHGFSPLHWACREGRSAVVEMLIMRGARINVMNRGDDTPLHLAASHGHRDIVQKLLQYKADINAVNEHGNVPLHYACFWGQDQVAEDLVANGALVSICNKYGEMPVDKAKAPLRELLRERAEKMGQNLNRIPYKDTFWKGTTRTRPRNGTLNKHSGIDFKQLNFLTKLNENHSGELWKGRWQGNDIVVKVLKVRDWSTRKSRDFNEECPRLRIFSHPNVLPVLGACQSPPAPHPTLITHWMPYGSLYNVLHEGTNFVVDQSQAVKFALDMARGMAFLHTLEPLIPRHALNSRSVMIDEDMTARISMADVKFSFQCPGRMYAPAWVAPEALQKKPEDTNRRSADMWSFAVLLWELVTREVPFADLSNMEIGMKVALEGLRPTIPPGISPHVCKLMKICMNEDPAKRPKFDMIVPILEKMQDK
partner: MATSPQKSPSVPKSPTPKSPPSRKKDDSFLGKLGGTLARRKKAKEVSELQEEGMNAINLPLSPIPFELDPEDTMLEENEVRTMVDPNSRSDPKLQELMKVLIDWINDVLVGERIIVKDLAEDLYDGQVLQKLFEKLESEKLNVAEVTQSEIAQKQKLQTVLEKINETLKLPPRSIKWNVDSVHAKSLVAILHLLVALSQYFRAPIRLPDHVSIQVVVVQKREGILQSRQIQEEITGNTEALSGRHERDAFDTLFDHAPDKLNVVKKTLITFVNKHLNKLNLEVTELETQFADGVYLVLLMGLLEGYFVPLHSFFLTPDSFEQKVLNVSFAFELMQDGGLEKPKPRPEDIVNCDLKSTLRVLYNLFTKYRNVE

Variants of: B1
Conditions: with parva_human PARVA

Row | effect of a mutation on the interaction | Variant
1 | disrupting interaction | M402A;K403A
